In PMC7822796, “Pleiotropic function of the SQUAMOSA PROMOTER-BINDING PROTEIN-LIKE gene TaSPL14 in wheat plant architecture”:

T1: GST-TaSPL14 (UniProt A0A3B6LP29 1-396)
T1 sequence: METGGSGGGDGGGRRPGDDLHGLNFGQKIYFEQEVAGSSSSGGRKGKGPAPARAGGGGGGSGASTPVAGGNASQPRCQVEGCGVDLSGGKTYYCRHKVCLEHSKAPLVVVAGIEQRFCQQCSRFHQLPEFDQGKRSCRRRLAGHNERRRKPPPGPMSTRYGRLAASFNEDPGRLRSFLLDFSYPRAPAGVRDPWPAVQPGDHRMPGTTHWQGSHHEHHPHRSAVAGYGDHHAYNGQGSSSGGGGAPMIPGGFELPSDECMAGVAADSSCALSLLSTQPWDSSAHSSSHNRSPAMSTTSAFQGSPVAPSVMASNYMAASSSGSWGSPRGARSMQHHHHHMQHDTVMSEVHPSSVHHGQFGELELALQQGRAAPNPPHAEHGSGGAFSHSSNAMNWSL

B1: TaERF1 promoter probe (dsDNA)
DNA 1: AGAAAAGAAAAAAGTACGATCATTCCTCGT
DNA 2: ACGAGGAATGATCGTACTTTTTTCTTTTCT
B2: TaRAP2.11 promoter probe (dsDNA)
DNA 1: ATGACTTGATGCGGTACAATAATATTAAGC
DNA 2: GCTTAATATTATTGTACCGCATCAAGTCAT
B3: TaEIL1 promoter probe (dsDNA)
DNA 1: GCCAAAACTTTTAGTACAACTTAAGTCTTT
DNA 2: AAAGACTTAAGTTGTACTAAAAGTTTTGGC

Molecular target: T1, GST-TaSPL14
Experiment: EMSA; 10 mM ZnCl2, poly dI-dC; competed by unlabeled probe; EMSA: 1x binding buffer (printed as 100 mM Tris, 500 mM KCl, 10 mM DTT, pH 7.5), 10% glycerol, 0.5 mM EDTA, 10 mM ZnCl2, 50 ng/uL poly dI-dC, 20 uL, 30 min at room temperature, 6% native PAGE
Conditions: protein: recombinant; tags: GST (N-terminal, pGEX6P-1); label: 5' biotin; blunt

Row | Binder | binding result
1 | B1 | binds
2 | B2 | binds
3 | B3 | binds
